For test [1], the target named is YfiB^L43P (residues 34–168), purified alone (P. aeruginosa, UniProt Q9I4L6 34-168, L43P). In words: ITC.
For test [2], the target named is YfiB^L43P/F57A (residues 34–168) (P. aeruginosa, UniProt Q9I4L6 34-168, L43P | F57A). In words: ITC.

B1: YfiR (residues 35–190), purified alone (domain or fragment)
chain: DDARTSIEQRSNAVSQVLLGIFSYVRWPKEPAVLQLCVVGPTEYADGLLRGMVQANGRRVHAERRAVDNPDLGTLCNVIYLGVVDERERQQVFRSLAGHPVLSISERGTECSVGSMFCLNVGGPRITFEANLDSIARSGVRVHPSVLKLARRQATP
B1: the Ka in test [1] is 7.12e+06 M⁻¹; in test [2], 1.87e+06 M⁻¹.

Source of the values: publication PMC4887326 (2016).
